The DeepSol protein solubility set

Test: soluble on expression in E. coli; label from the status in PepcDB or PDB records

Sequence	soluble on expression in E. coli
MYEITATIVTYKNPDSVLLKAINSFLNTKLEVRLYIIDNSPTDYLKDISYDPRVEYIFMNSNNGFGAGHNVILRDPEKMGKYHLILNPDISFEEGTLEKLYDYMEGKLDVGNVMPKVIYPNGELQYLCKLLPTPKDWIVRMFLPIKSIKNRIDYNFEMKFADYDREMNIPYLSGCFMFLRKSVIEGIGVFDEGIFMYGEDTDLNRRIYRKYKTMYYPQVTITHHFEKGSHKSLRLLWIHVKAAIYYLNKWGWFFDKERSIINITVKQQYIRKLEHHHHHH	soluble
MGSDKIHHHHHHMLAQGQRFEGLLCGDDSSRCEVVEMAKLTQFLISGACALLITATSAIADPIAPAGKAIGQDGGGHTIYQVDANGISIGYKLIGQGAPMVMIMGLGGTADNWPPQVIEALSKNHQLILMDNRGMGHTTANDTPFSYPLFAADVIGLLDALGIKRSDVLGYSMGSTITQQLLLQYPDRFNKALIHATSTDGSNVAKALHGRVPTDPIVARQVEATTHWKTPLDKLPSIDNQVMLVVGTADNVVGTESSKTIASAIPGAWLVQFKGATHHLMYETPEGFSAAALTFFETNETVTPKIEPNASVAPPPTQP	not soluble
GSGLSAQDISQPLQNSFIHTGHGDSDPRHCWGFPDRIDELYLGN	soluble
MAHHHHHHMAEQFTEDIGVVNKRLLEPVPFVKTNNCIKDVDADLFIRSYATHLKLHNKITYPKWCTFVKTGKGRKLAPLNEDWYFIRASSILRRLYLHPDIGVGFLRRQFSSKQRRGVAPNHTSLASGKILRSILQQLENLGYVEQNPKKKGRRLTTKGENAINNFARYINKKVYNKE	not soluble
MSGGGVIRGPAGNNDCRIYVGNLPPDIRTKDIEDVFYKYGAIRDIDLKNRRGGPPFAFVEFEDPRDAEDAVYGRDGYDYDGYRLRVEFPRSGRGTG	soluble
MGSSHHHHHHSSGLVPRGSHMVNKRMSMVVSGLTPEEFMLVYKFARKHHITLTNLITEETTHVVMKTDAEFVCERTLKYFLGIAGGKWVVSYFWVTQSIKERKMLNEHDFEVRGDVVNGRNHQGPKRARESQDRKIFRGLEICCYGPFTNMPTDQLEWMVQLCGASVVKELSSFTLGTGVHPIVVVQPDAWTEDNGFHAIGQMCEAPVVTREWVLDSVALYQCQELDTYLIPQIP	soluble
MGHHHHHHSHMDNCLAAAALNGVDRRSLQRSARLALEVLERAKRRAVDWHALERPKGCMGVLAREAPHLEKQPAAGPQRVLPGEREERPPTLSASFRTMAEFMDYTSSQCGKYYSSVPEEGGATHVYRYHRGESKLHMCLDIGNGQRKDRKKTSLGPGGSYQISEHAPEASQPAENISKDLYIEVYPGTYSVTVGSNDLTKKTHVVAVDSGQSVDLVFPV	not soluble
SALIAALSVSGLPSNRFTFEGFLPAKPTARRDRLTHLAHEPRTLIFYEASHRIAECLTDLATIFGSMRIAVVARELTKIFETVLDGTLATLQTQVANDENQRKGEFVIIVQGAADQ	not soluble
MALICELDEQWSYVGSKARLHWLWYAYNTKTGGVLAYTFGPRTDQTCRELLALLTPFNIGMLTSDDWDSYGRVVPKNKHLTGKIFTQRIERNNLTLRTHIKRLARKQSASHAQLRSTKK	not soluble
MGSDKIHHHHHHMIVINMFSSANKVAGQGVGAVYTELMGLLKHDFSNEFEVNVNRYTRSDISHYHTIDPKFYLSTFSKKRGRKIGFVHFVPSTLDASLKLPRVARWTLDKYTLAFYKRMDQLVVVNPNFIPKLEAYGISRDKVTYIPNFVSQRTFHPVSTEKRQALRHANGFKPDDFVIFGAGQVQDRKGVSDFIKLAKQNPEFRFVWAGGFSFGRITEGYDHLKKAVAEAPANLDFTGIMPRETMIDYYNMADVFLLPSYEELFPMSVLEAFATGTPVMVRDLELYHQIITPYAITAVDVDDMQSRLRALADDHDLLATYATKSRQAAEVYDESRLEKVWHDFYLHQAALGKH	not soluble
MSLKQKSSGKSVIITGVTQGLGRAMVDRFHELGWNIYGCGRSKDKIEELKKYYGNTHVFQIIDVSDSQQVSDWANYILHRNRAPDLLINNASIVNKNAPLWKVTAEEFENVMNVNVNGVVNVIRAFVPAMVARKAGMIINMSSSWGREGEAELAPYCASKFAIEGITKSLALELPYSMAVVALDPGGSISTPMLYSCAPQYVNESPTPEMWSQHAIPYILKITIDKNGASLTCPECTEGHHHHHH	soluble
MISSGWMQEMEPIPEEGTEADGSEWGAMSDTAKRTMRKKEVYTSEQINTLVSTVPKEAVPQEWLVENQVVDPEMATSYLTESLAGPTSARGSSYSYSYESHYDNPPEEEYEHFTNDDGVHQMQKVTRVTKVTTTRSVRQVPVQSPYSNIDFDSSGLPTPSPVIDRDPSLEMMARMGGASDHDSEDRSAPPPAPASRFLHEDSGIPSAPGVPDVVDAGIGEVTVVWSAPLQSNGGEVRGYQIEMREFPDGEWESMGVDHLLKDTTCRVTNLTSHEVQFRVSAYGRTGFGPASNPSLPVKIPISETDLATSAGAPLAPGRPTVIAVDGQGVLLEWTPPVADVHSSPPQGYQVEYRVYGSRDWIVANEQLVQENVFTVESLRPNGVYEFRVRGKNQDGLGHPSMSSGGVAIRPAAPQRHVPARKVSESVQPPGQPQMVEVGDDVVKLEWAPSVQNARYIVEYREVGDPEWHTANYDPIVQNGIQVEGLHRNSTYEFCVISIVDNIASQPSETSDIIHLRPTCNTSALRPAPNILEAPEFLEVDGDKITICWLPAQSQLPVMGYDVEFRDLQQDDRWYKVNDQPVFACKMTVGDLIMDHDYQFRVLAHNASGCSQPSPPSDFVHIEPSTNRFSSDTMESPHLGHHDVVKYVEAERFGAVPLLQEEMVRESPPLPERDDSPPPLRRANNNVQWRDPSLKEVIEYLSSADKDKQLNASGYLQHLTYTDNQIKEETREYGGIPKLIALLRSDTPRIQKNACACLKNLSFGKENDANKLAVMEADGVRLIAEVLRTTHDASVKEEAAAALWNLSSADMLKPVILESATEILSQQVIAPVLAVGTSDPTRHFGSTLFKNSTGVLRNVSAASQQARRRLRDIPNLIEALVHFLTHAIQKSQVDSPTVENAVCLLRNLSYRIQEVVDPNYDPAAAHSSSSKNMKHVASPKPEKKKKDKEKKKDKNPKNIVTGPSVLWQPHVVKLYLKLLQDSSNIETLEASAGAIQNLAACQFPPSAEVRAAVRVEKGLPVLVELIRLPEDFVVCAVATALRNLAIDPRNRELIGKYALRDFLDKLPEPGSPRRSAISDQTIGAVLGILFEIVRSSAAYTKDVHELKGTDKLRALSRSYPTYSHRVCKYASQVLYVMWQHKELHDGFKRSGLKEADFYSGTARRGDSSTLARPISSQGRERPSMHQLDETLSSGGGYGTMESNNRAGTLRPASATSQTIQRRYDQVPRDGPVYSSVQKPSPRGGGGGGNIDDSWV	not soluble
MSDAIVVGAGPNGLAAAVALARRGLKVTVLEAADEIGGGTRTSELTVPGLLHDHCSAVHPLGVGSPFLRTLGLERYGVTWAWPDVDLAHPLDGGRAGVLVRSMERTVRGLGPDGPAWERLFAPLAEDFDALTEDLLRPVPHLPAHPVELARFGLRALQPATTVARRWRGAEARALFAGAAAHLMHPLTGPTSSAVGLMLVGAAHRFGWPVARGGSRTITDALAALLAQLGGTIETGVRVDSLDQLAAARIVMLDTAPGAAARICGDRLPGRVRSAYEGWRHGPAAFKVDLAVQDGIPWTHEACRRAGTVHLGGTLEEVVRTEAQTAGGRMPERPFVLVGQQYLADPSRSRGDVHPIWAYAHVPHGYPGDATEAVLRQIERFAPGFRDRIVGIAARSTAELARSNTNFVGGDIVGGANTARQVALRPRVALDPYSTGIPGVYLCSAATPPGAGVHGMCGANAARSALRYLDRLEHHHHHH	not soluble
MAVPESKEALIKAINSQFTLLMKKIDAVPAERAFSPEMAGHAQGTQMSPANLVAYLLGWGNVVLKWHEDEEQGKTIDFPEAGYKWNQLGLLAQKFYQDYAPITDWAELIALLAANKLALIALVERYTDEQLYGEGWYGKWTRGRMIQFNTAAPYKNAAGRLRTWEKNKLEHHHHHH	not soluble
MTFVPLNPIPLKDRTSMIFLQYGQIDVLDGAFVLIDKTGIRTHIPVGSVACIMLEPGTRVSHAAVRLASTVGTLLVWVGEAGVRVYSSGQPGGARADKLLYQAKLALDDDLRLKVVRKMYELRFREPPPARRSVEQLRGIEGSRVRATYALLAKQYGVKWHGRNYDPKDWEKGDVVNRCISAATSCLYGISEAAILAAGYAPAIGFIHSGKPLSFVYDIADIIKFESVVPKAFEIAARHPAEPDKEVRLACRDIFRSSKLTGKLIPLIEEVLAAGEIEPPQPAPDMLPPAIPEPESLGDSGHRGHG	not soluble
MASIDRFQVMQEPELKILEHWFENEDTRRRMDGMLLLDEWYARVNKDKHDTVIMAYDGQLPAGMVVIEFGEERTYIGLIVNPLYRLKGYGKQILQKLMTEPDFTSVREWVACIEEDNRISLACFQAAGFTLEDTEPDEDGFLTLILRNLEHHHHHH	not soluble
MDLFPVLKELAQKTPSKILLIVLDGVGGLPLEPGGPTELEAAKTPNLDRLAEESALGLLTPVYPGLAPGSGPGHLALFGYDPFRYVVGRGALSALGLGADFREGDVALRGNFATLDPEGKVVDRRAGRPPTEENQRVIAKLKEAIPRIEDVEVLFYTESEHRFLVILRGEGLEDKVTDTDPQKTGLPPLKAKALDEASERTARLVNLLSERIREVLKDEPRMNGALFRGASKKPSFPRMQEVYKLTPAAIASYPMYKGLASLVGMEVLPVEGEGDALEGKLKALKENWGRYDFFYFHVKKTDAMGEDGNFHGKVEKVELFDALLPEILALGPDVLAITGDHSTPALLKAHSWHPVPLLLKAPYLRADEARRFTEREAQRGSLGHLRGVELMPLLLAHAGKLLKYGA	soluble
MAHHHHHHMGCVNCKKAKRRKDHPTLEEAAARETERERWAAAEQGFAAQNLYTSVHAANSLPLTEREGATPLPATPGRLENVPQISAAAAAPGETENGRGWNSKKKSNSQATGKADNDSTAAALARVTRTAAPSESSRETPKGRRNKHQYRCHPGVSSWSDGSLPLSVDSVGSAKCPHSSSSSSSSSAQTYKSKKGAEDAKKHGSPGSITAAEIWPQENSDDSVAQGHLNSASHSQTATAWLHINGLTAAGTTSSTNARQTRQPKMYHRSSNVSSDSRSNATPPGMETKVYPSADALDDGPSDWGSTSHDVPAAIPAPNTSVESGGAAAEASSLPNRAPFEPYSDLGSRDVTDYLPPYEWAPRTLPVPSPLRACGPVDMAQWEDGENQFCGLAAAGTTARFQDPVVNVSAEGATTSNSAVAEGNYGASHPFALHTFYPRLPPAQWSSSSSDDTINGPEASAAAFDYPHLPVNAFIQKAHPHQQQPTYRAMYEGDASVRYSPAGYASHEATPRRAVPPSLVDVHVSEAVGYASPPLVNNAHSFYPSRALLPMHHSHAVPDSGSGKPMAYSHALPAMTTSAPQIYHDGNRNRSGNISIVSIGGGVHPHKPVSYLFDSSMDDWLQSRHAQPPQRQLYGESVDMW	soluble
MPAIFTHEGKVEGVPGNYPLTAENLFRIGLALCTLWILDKEIEEPTLSIPETNFVTLALSVGFMNAGGSVNVGKGGDIKLFLQKGEIYVLEFQPLSETDIKKLESILFGRAPIPKKTGEDIGSFKC	soluble
MLTLITFPKAFGLYSASPFCVKAAYLLTLAGEPWQRQDQTDPRRMPHGKLPVLRTPERLVPDSDGIRAWLESRGAEFDRGLTDAQRASARALIHMAEDHFYPYLVLDRWGNDAVWAIIRDTFFGEIPRLLRKPVTNRIRAQVLRGLDFQGMARFSEAERRDRVERSFEAVTALLWQKPFLFGDAPTGADLSVAPMLAAMRATPVATPLQRRVAGDRVLSDYIDRMDATLPLT	not soluble
